Laboratory results as given in publication PMC11229354, “PRMT5-mediated arginine methylation of FXR1 is essential for RNA binding in cancer cells”.

Legend:
Experiment in all cases: EMSA; 150 mM KCl, 1 mM Mg2+; EMSA: 50 mM Tris-HCl pH 7.4, 1 mM MgCl2, 0.1 mM EDTA, 150 mM KCl (or LiCl, printed LiCl2), 1 mM DTT, 1 U/ul RNase inhibitor, 100 ug/ml BSA, ~25 C, 20 min; 0.5 pmol RNA in 10 ul
Settings in all cases: protein: recombinant; tags: N-terminal GST (pGEX-6P-1); label: 5' 32P or 5' ATTO 550; intramolecular G4 (plausible structure)
GST-FXR1 S382-P476 R386K = GST-FXR1 S382-P476 R386K (human, UniProt P51114 382-476, R386K)
GST-FXR1 S382-P476 WT = GST-FXR1 S382-P476 WT (human, UniProt P51114 382-476)
[1] = biological target: GST-FXR1 S382-P476 R386-459K (human, UniProt P51114 382-476, R386K;R388K;R453K;R455K;R459K)
GST-FXR1 S382-P476 R386-459K, sequence (P51114 382-476 R386K/R388K/R453K/R455K/R459K): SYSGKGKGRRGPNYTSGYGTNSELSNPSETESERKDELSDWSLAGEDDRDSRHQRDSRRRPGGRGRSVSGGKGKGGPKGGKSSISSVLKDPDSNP

GST-FXR1 S382-P476 WT, sequence (P51114 382-476): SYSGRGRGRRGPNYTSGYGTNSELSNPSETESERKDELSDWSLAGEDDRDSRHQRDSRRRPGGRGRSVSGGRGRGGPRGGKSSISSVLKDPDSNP
GST-FXR1 S382-P476 R386K, sequence (P51114 382-476 R386K): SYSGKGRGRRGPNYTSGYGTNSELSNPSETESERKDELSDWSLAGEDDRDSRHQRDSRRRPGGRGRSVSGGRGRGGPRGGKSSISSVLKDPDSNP

Binder: GGGGGUGAGGGUCCCAUGUGGUGGCACAGG (structured_RNA) [30-mer p21 3'UTR G4-RNA (seg1)]
- binding result (GST-FXR1 S382-P476 R386K): no binding
- Kd (GST-FXR1 S382-P476 WT): 25 nM
- binding result [1]: no binding
